In patent US20220024982A1 (Bicycle, published 2022) one finds Kd and Ki data, which are given here for 17 molecules.

Experiment [1] has as its target T1, MT1-MMP Hemopexin domain (PEX) (UniProt P50281 319-511).
T1 construct: domain: Hemopexin domain (PEX); Target of the fluorescence polarisation assays; also called hemopexin of MT1-MMP; MMP14
Nature of the experiment: FP competition vs tracer 17-69-07-N041. The text has this:
(§1) Here, a pre-formed complex of PEX with the fluorescent PEX-binding tracer is titrated with free, non-fluoresceinated bicyclic peptide. Since all 17-69-based peptides are expected to bind at the same site, the titrant will displace the fluorescent tracer from PEX. Dissociation of the complex can be measured quantitatively, and the Kd of the competitor (titrant) to the target protein determined. The advantage of the competition method is that the affinities of non-fluoresceinated bicyclic peptides can be determined accurately and rapidly.
(§2) Subsequently, the non-fluorescent competitor bicyclic peptide (usually just the bicycle core sequence) is titrated, such that it displaces the fluorescent tracer from the target protein. The displacement of the tracer is measured and associated with a drop in fluorescence polarisation. The drop in fluorescence polarisation is proportional to the fraction of target protein bound with the non-fluorescent titrant, and thus is a measure of the affinity of titrant to target protein.
(§3) The raw data is fit to the analytical solution of the cubic equation that describes the equilibria between fluorescent tracer, titrant, and binding protein. The fit requires the value of the affinity of fluorescent tracer to the target protein, which can be determined separately by direct binding FP experiments (see previous section).

Experiment [2] concerns the target T1, MT1-MMP Hemopexin domain (PEX). Nature of the experiment: FP direct binding.
Experiment [3] has the same target. Nature of the experiment: FP competition vs tracer 17-69-07-N040.
Source text: as §1, §2, §3

Experiment [4] shares this target. Nature of the experiment: FP competition, plate 1, tracer not named.
For experiment [5] the target is unchanged. Nature of the experiment: FP competition vs tracer 17-88-N006. The procedure:
as §2, §3

The target of experiment [6] is T2, human MT1 MMP14 protein, hemopexin domain (obtained from Merck Millipore) (human, UniProt P50281 319-511, limits assumed, randomly biotinylated (EZ-Link Sulfo-NHS-LC-LC-Biotin)).
T2 construct: domain: hemopexin domain; Target of the SPR assay, captured on streptavidin; also called biotinylated MT1 MMP14
Nature of the experiment: SPR, biotinylated target on streptavidin chip. As for the experimental part:
Streptavidin was immobilized on the chip using standard amine-coupling chemistry at 25° C. with HBS-N (10 mM HEPES, 0.15 M NaCl, pH 7.4) as the running buffer. […] Buffer was changed to PBS/0.05% Tween 20 and a dilution series of the peptides was prepared in this buffer with a final DMSO concentration of 0.5%. […] Data were corrected for DMSO excluded volume effects. All data were double-referenced for blank injections and reference surface using standard processing procedures and data processing and kinetic fitting were performed using Scrubber software, version 2.0c (BioLogic Software).

Numbered stars: 1 amine (or outer) side, 2 acyl side, 3 side chain; on linkers, the order of the positions; unused ones are H or OH. Bridge positions count the residues as written; N and C are the ends. Square brackets hold non-standard residues; d marks the D form. Ends that are not written are not given here. TATA = O=C(CC[*:1])N1CN(C(=O)CC[*:2])CN(C(=O)CC[*:3])C1; fluorescein = fluorescein (fluorescent label, [FI]); 2Nal = N[C@@H](Cc1ccc2ccccc2c1)C(=O)O; TBMB = c1c(C[*:1])cc(C[*:3])cc1C[*:2]; hArg = N=C(N)NCCCC[C@H](N)C(=O)O; Tle = CC(C)(C)[C@H](N)C(=O)O; Sar = CNCC(=O)O Bounds are passed on as bounds.

B1: 17-126-01 (peptide)
peptide: ACEEEFYPCGHPLYVCA
modifications: linker 2-9-16 via TATA
The molecule B1 yielded a Kd in experiment [1] of more than 316 nM.

B2: 17-126-02 (peptide)
peptide: ACEEQFYPCTHALYTCA
modifications: linker 2-9-16 via TATA
The molecule B2 returned an equilibrium dissociation constant (Kd) in experiment [1] of more than 282 nM.

B3: 17-69-12-N004 (peptide)
peptide: fluorescein-G[Sar][Sar][Sar][Sar][Sar]ACMNQFGCEDFYDICA
modifications: linker 8-14-21 via TBMB
notes: fluorescent tracer
Consider B3, for which the Kd in experiment [2] was determined as 1 nM. This lies in the single-digit nanomolar range.

B4: 17-126-25 (peptide)
peptide: ACEEAFYPCHHPLYRCA
modifications: linker 2-9-16 via TATA (inferred)
The molecule B4 registered a dissociation constant Kd in experiment [3] of more than 139 nM.

B5: 17-88-N006 (peptide)
peptide: ACPYSWETCLFGDYRCA[Sar][Sar][Sar][Sar][Sar][Sar]K(fluorescein)
modifications: linker 2-9-16 via TBMB
For the molecule B5, the dissociation constant Kd in experiment [2] was 14 nM. In other words, the double-digit nanomolar range.

B6: 17-88-226-N002 (peptide)
peptide: ACPYDWATCLFGDYRCA[Sar][Sar][Sar][Sar][Sar][Sar]K(fluorescein)
modifications: linker 2-9-16 via TBMB
Take B6: in experiment [2], the Kd was determined as 50 nM.

B7: BCY11149 (peptide)
peptide: Ac-LPPC[Tle][hArg]ECALLFP[hArg]TC
modifications: linker 4-8-16 via TATA
B7 registered a Ki in experiment [4] of 80 nM.

B8: 17-69-07-N041 (peptide)
peptide: fluorescein-G[Sar][Sar][Sar][Sar][Sar]ACYNEFACEDFYDICA
modifications: linker 8-14-21 via TBMB
notes: fluorescent tracer
Molecule B8 came in with an equilibrium dissociation constant (Kd) in experiment [2] of 3.4 nM.

B9: 17-120-21 (peptide)
peptide: ACYEECRLLFPRTCA
modifications: linker 2-6-14 via TATA
As to B9, the dissociation constant (Kd) in experiment [5] was more than 82.8 nM.

B10: 17-122-04 (peptide)
peptide: ACDSPEECFYPLECA
modifications: linker 2-8-14 via TATA
Take B10: the dissociation constant Kd in experiment [3] was more than 2100 nM.

B11: 17-126-03 (peptide)
peptide: ACVEEFYPCDHPLYSCA
modifications: linker 2-9-16 via TATA
As for B11, the equilibrium dissociation constant (Kd) in experiment [1] was more than 430 nM.

B12: BCY10223 (peptide)
peptide: Ac-LPPCV[hArg]ECALL[2Nal]P[hArg]TC
modifications: linker 4-8-16 via TATA
Turning to B12, the Kd in experiment [6] was 400 nM.

B13: 17-122-02 (peptide)
peptide: ACLEPDECFYPMECA
modifications: linker 2-8-14 via TATA
With B13, the dissociation constant Kd in experiment [3] is more than 929 nM.

B14: 17-122-03 (peptide)
peptide: ACKEPQECFYPLKCA
modifications: linker 2-8-14 via TATA
In the case of B14, the Kd in experiment [3] was more than 378 nM.

B15: 17-120-05 (peptide)
peptide: ACADECRLLFPKTCA
modifications: linker 2-6-14 via TATA
B15 gave a Kd in experiment [3] of more than 280 nM.

B16: 17-69-07-N040 (peptide)
peptide: ACYNEFGCEDFYDICA[Sar][Sar][Sar][Sar][Sar][Sar]K(fluorescein)
modifications: linker 2-8-15 via TBMB
notes: fluorescent tracer
In experiment [2], B16 displayed a Kd of 0.52 nM.

B17: 17-126-24 (peptide)
peptide: ACDEQFYPCNHRLNTCA
modifications: linker 2-9-16 via TATA (inferred)
In experiment [3], B17 came in with a Kd of 200 nM.

By Kd is commonly meant the free concentration of one partner at which half of the binding sites on the other are occupied at equilibrium, for simple one-to-one binding. A higher Kd goes with a looser complex. Usually Ki stands for the dissociation constant of the complex between target and ligand, obtained from inhibition or displacement. A high value points to weaker binding.
